Results: patent US20240425885

What was measured:
Experiment in all cases: cleavage_in_vitro
[1] = test system: T1, OMNI-97 (metagenomic, unknown); settings: TXTL; PAM NNRCCANN
T1 sequence: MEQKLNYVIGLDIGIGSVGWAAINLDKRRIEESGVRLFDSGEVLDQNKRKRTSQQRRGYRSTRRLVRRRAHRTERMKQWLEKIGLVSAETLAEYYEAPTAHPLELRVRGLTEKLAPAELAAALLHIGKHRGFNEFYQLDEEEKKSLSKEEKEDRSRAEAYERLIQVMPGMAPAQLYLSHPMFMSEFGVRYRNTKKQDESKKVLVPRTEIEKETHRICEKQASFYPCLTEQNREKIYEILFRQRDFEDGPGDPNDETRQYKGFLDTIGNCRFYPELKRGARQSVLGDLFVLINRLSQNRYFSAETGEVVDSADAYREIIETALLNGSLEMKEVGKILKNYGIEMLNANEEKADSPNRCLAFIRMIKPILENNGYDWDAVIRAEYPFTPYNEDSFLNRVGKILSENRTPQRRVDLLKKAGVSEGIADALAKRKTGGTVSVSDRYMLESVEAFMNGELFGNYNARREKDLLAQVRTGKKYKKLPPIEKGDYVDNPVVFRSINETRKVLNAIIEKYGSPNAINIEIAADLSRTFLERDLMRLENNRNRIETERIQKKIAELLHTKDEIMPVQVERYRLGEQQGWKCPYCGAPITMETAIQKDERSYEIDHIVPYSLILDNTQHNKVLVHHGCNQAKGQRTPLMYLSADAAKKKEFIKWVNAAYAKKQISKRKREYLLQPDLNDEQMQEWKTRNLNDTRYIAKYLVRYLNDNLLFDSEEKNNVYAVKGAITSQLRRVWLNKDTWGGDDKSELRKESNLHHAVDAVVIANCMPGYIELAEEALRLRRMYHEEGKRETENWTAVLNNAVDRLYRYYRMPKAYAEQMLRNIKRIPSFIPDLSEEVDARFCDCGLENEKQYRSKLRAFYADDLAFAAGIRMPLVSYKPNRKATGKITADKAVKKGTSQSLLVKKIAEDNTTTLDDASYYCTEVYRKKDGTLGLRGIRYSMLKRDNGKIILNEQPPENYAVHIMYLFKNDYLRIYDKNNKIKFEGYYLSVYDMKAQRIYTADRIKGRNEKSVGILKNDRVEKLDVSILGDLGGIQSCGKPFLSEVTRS

[2] = test system: T2, OMNI-107 (metagenomic, unknown); settings: TXTL; PAM NNNAANNN
T2 sequence: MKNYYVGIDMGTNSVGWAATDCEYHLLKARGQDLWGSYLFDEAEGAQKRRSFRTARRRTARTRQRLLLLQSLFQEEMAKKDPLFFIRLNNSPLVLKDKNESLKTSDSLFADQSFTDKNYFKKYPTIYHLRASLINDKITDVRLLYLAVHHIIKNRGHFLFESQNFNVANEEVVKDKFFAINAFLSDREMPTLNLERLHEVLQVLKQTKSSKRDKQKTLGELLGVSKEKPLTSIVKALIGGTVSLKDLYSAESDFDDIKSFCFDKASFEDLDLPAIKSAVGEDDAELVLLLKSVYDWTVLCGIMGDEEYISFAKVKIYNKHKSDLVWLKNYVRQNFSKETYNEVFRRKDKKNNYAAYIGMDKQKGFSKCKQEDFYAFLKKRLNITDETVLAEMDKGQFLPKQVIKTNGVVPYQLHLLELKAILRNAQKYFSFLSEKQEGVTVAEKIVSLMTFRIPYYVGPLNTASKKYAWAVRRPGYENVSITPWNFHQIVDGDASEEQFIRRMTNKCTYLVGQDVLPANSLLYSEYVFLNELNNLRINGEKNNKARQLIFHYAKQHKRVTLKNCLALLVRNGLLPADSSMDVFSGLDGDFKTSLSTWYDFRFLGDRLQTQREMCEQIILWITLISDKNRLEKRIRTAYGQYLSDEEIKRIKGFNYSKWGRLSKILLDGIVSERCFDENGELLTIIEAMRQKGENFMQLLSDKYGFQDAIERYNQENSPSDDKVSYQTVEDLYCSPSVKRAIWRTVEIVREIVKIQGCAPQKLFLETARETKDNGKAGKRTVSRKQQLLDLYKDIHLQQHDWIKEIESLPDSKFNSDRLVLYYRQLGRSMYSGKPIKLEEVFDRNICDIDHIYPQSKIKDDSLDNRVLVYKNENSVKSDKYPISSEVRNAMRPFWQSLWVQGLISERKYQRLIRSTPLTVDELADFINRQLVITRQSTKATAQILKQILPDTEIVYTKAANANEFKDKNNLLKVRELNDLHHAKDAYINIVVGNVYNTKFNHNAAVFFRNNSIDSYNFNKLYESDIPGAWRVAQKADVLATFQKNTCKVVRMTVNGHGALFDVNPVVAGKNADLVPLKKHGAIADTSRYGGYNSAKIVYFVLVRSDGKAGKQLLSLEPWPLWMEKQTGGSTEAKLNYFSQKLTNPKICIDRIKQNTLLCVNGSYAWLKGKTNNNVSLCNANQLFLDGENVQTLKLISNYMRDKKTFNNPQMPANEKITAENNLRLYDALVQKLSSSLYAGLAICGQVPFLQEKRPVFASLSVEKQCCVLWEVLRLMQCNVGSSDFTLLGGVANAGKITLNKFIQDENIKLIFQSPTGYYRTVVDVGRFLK

[3] = test system: T3, OMNI-118 (metagenomic, unknown); settings: TXTL; PAM NNRTTHNN
T3 sequence: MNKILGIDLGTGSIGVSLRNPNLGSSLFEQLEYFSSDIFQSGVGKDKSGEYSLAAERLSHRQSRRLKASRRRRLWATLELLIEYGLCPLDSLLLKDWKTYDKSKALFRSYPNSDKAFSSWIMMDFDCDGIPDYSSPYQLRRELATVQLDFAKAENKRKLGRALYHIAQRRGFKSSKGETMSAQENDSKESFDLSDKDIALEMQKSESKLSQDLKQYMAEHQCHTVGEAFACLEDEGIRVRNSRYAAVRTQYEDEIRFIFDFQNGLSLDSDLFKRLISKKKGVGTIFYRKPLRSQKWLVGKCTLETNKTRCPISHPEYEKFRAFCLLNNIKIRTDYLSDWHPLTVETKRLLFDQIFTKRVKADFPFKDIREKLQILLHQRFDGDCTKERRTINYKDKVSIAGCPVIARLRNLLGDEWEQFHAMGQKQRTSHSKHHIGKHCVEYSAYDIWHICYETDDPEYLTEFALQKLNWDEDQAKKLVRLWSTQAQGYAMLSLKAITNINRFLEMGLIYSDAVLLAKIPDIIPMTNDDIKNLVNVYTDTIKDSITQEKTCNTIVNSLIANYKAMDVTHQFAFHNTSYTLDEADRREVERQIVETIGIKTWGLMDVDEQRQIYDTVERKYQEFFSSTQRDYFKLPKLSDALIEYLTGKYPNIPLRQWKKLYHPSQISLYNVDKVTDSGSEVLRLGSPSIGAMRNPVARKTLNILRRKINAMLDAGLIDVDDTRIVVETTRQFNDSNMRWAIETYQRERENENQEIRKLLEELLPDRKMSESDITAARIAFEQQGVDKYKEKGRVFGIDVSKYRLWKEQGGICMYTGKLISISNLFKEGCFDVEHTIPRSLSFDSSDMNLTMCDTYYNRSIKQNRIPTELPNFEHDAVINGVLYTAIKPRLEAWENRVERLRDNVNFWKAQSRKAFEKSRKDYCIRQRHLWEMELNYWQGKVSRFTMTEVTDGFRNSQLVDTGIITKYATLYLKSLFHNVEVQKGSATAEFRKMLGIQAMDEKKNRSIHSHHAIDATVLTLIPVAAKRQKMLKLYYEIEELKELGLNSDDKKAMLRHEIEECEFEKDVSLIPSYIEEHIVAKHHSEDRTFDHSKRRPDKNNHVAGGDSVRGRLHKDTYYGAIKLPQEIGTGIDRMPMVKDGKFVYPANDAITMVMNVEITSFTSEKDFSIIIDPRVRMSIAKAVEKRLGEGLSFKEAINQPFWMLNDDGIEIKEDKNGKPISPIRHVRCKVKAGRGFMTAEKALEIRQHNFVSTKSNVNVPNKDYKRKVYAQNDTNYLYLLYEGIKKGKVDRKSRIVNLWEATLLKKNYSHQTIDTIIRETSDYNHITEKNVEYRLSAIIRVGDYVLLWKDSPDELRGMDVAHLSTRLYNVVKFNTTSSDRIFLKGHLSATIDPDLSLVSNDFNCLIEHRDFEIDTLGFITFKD

Sequence: GGAAGAGCAGAGCCUUGGUCUCGUUUUGGGCCUCUGAUGGGAAACCAUCAGAGACCUGAGAUAAGGCUUUAUGCCGUAGGGUAUGGCGGUAACCCGGAGUAUUCCGAAUCCGCUUUUUCUUUGCCUGUAAAUACAGUAUAACAUAUUAUUUCGUCCUUUUUU / GGAAGAGCAGAGCCTTGGTCTCNNNNNNNN / NNNNNNNNGAGACCAAGGCTCTGCTCTTCC [T2 sgRNA 8 V1 ; T2 protospacer + 8N PAM library (pbPOS T2)]
- activity (1-depletion score) [1]: 0.93

Sequence: GGAAGAGCAGAGCCUUGGUCUCGUUUGAGUAUGGUGUUAGAAAUAACACCAUUAGUUCAAAUAAGAUUUUUUCAAAUCGCCGAUUUUUCGGUAGUACACGAUGUGUACAUUUUUU / GGAAGAGCAGAGCCTTGGTCTCNNNNNNNN / NNNNNNNNGAGACCAAGGCTCTGCTCTTCC [T2 sgRNA 16 V3 ; T2 protospacer + 8N PAM library (pbPOS T2)]
- activity (1-depletion score) [2]: 0.83

Sequence: GGAAGAGCAGAGCCUUGGUCUCGUUUUGGGCCUCUGAUGGGAAACCAUCAGAGACCUGAGAUAAGGCUUUAUGCCGUAGGGUAUGGCGGUAACCCGGAGUAUUCCGAAUCCGCUUUUUUU / GGAAGAGCAGAGCCTTGGTCTCNNNNNNNN / NNNNNNNNGAGACCAAGGCTCTGCTCTTCC [T2 sgRNA 8 V3 ; T2 protospacer + 8N PAM library (pbPOS T2)]
- activity (1-depletion score) [1]: 0.97

Sequence: GGAAGAGCAGAGCCUUGGUCUCGUUUGAGUAUGGUGUUAGAAAUAACACCAUUAGUUCAAAUAAGAUUUUUUCAAAUCGCCGAUUUUUCGGUAGUACACGAUGUGUACAUUGGAUCUGUUGCAAGACAGGUCCUUUUUUU / GGAAGAGCAGAGCCTTGGTCTCNNNNNNNN / NNNNNNNNGAGACCAAGGCTCTGCTCTTCC [T2 sgRNA 16 V1 ; T2 protospacer + 8N PAM library (pbPOS T2)]
- activity (1-depletion score) [2]: 0.7

Sequence: GGAAGAGCAGAGCCUUGGUCUCGUUGUGAUUUGCUCUCAAAUGAAAAUUUGUGAGACUUAUCACAACAAGGCUAUAAGCCGAAGUAUUAACUCCGCGAUUAUGUCGUGGAGUUUUUUU / GGAAGAGCAGAGCCTTGGTCTCNNNNNNNN / NNNNNNNNGAGACCAAGGCTCTGCTCTTCC [T2 sgRNA 21 V2 ; T2 protospacer + 8N PAM library (pbPOS T2)]
- activity (1-depletion score) [3]: 0.78

Sequence: GGAAGAGCAGAGCCUUGGUCUCGUUGUGAUUUGCUCUCAAAUGAAAAUUUGUGAGACUUAUCACAACAAGGCUAUAAGCCGAAGUAUUAACUCCGCGAUUUUGUCGUGGAGUUUUUUU / GGAAGAGCAGAGCCTTGGTCTCNNNNNNNN / NNNNNNNNGAGACCAAGGCTCTGCTCTTCC [T2 sgRNA 21 V1 ; T2 protospacer + 8N PAM library (pbPOS T2)]
- activity (1-depletion score) [3]: 0.66
